These results are taken from patent US20020164690A1.

One test has as its target T1, gp130 on PC12D cells (UniProt P40190).
T1 sequence (looked up): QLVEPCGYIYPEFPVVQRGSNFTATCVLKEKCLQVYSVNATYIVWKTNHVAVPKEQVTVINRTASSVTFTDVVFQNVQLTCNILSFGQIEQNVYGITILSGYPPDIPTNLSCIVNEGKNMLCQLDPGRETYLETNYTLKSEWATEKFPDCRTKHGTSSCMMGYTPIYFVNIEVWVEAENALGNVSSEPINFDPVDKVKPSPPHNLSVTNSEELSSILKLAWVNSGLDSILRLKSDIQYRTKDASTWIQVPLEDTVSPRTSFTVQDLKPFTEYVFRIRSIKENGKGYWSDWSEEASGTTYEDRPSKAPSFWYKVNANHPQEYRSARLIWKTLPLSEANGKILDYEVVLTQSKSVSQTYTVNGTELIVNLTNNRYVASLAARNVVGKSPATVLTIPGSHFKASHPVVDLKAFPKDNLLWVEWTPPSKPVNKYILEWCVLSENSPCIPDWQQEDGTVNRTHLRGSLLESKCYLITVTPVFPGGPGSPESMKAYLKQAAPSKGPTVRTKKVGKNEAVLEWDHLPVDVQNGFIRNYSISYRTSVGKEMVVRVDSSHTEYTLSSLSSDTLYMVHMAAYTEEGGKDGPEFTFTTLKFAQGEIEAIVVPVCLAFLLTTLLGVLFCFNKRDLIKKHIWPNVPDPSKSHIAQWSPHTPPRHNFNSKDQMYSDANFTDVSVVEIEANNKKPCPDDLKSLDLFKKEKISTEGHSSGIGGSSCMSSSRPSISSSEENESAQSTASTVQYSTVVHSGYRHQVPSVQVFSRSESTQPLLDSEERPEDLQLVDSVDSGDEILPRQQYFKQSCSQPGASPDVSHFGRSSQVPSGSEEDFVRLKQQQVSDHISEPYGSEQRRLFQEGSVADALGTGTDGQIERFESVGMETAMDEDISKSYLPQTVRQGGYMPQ
Description: cell-based or functional assay.

For the next test, the target named is human 125I-IL6 (human) (UniProt P05231). Description: dissociation: 20 pM 125I-IL-6 preincubated with 500 pM antibody for 20 hours, chased with 20 nM cold IL-6, precipitation with Protein G-Sepharose.
Chain of human 125I-IL6 (human) (P05231 30-212 limits assumed): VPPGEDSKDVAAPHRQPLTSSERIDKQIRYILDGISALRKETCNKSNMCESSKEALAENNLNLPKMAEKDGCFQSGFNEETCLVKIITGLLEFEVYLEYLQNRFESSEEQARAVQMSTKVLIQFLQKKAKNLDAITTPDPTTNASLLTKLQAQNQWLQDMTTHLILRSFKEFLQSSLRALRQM
Test [1] concerns the target recombinant human IL-6 (human) (UniProt P05231). As to the kind of experiment: cell-based or functional assay.

A value given as a limit tells only on which side of the number the result lay.

Chain of recombinant human IL-6 (human) (P05231 30-212 limits assumed): as above

B1: Rat CNTF (ligand, UniProt P20294 1-200, looked up)
chain: MAFAEQTPLTLHRRDLCSRSIWLARKIRSDLTALMESYVKHQGLNKNINLDSVDGVPVASTDRWSEMTEAERLQENLQAYRTFQGMLTKLLEDQRVHFTPTEGDFHQAIHTLMLQVSAFAYQLEELMVLLEQKIPENEADGMPATVGDGGLFEKKLWGLKVLQELSQWTVRSIHDLRVISSHQMGISALESHYGAKDKQM
On to B1, for which, in the test with gp130 on PC12D cells, the tyrosine phosphorylation of gp130 in PC12D cells in response to IL-6 was determined as 2 nM; the tyrosine phosphorylation of gp130 in PC12D cells in response to IL-6 and sIL-6Rα was found to be 8 nM.

B2: anti-IL-6 monoclonal neutralizing antibody B-E8 (antibody, from another filing, V domains shown)
VH: QVTLKESGPGILKPSQTLSLTCSFSGFSLSTSGMGVGWIRQPSGKGLEWLAHIWWDDDKYYNPSLKSQLTISKDTSRNQVFLKITSVDTADTATYYCARSYDDYLYYALDYWGQGTSVTVSS
VL: DIVMTQSPATLSVTPGDRVSLSCRASQSISDYLHWYQQKSHESPRLLIKSVSQSISGIPSRFSGSGSGSDFTLSINSVEPEDVGVYYCQNGHSFPLTFGAGTKLELK
The molecule B2 had a percent of the counts still associated after three days with human 125I-IL6 (human) below 5%. For the same molecule, in test [1], the IL-6-dependent proliferation of XG-1 cells (50 pg/ml IL-6): molar excess that blocks completely (fold molar excess over IL-6) turned out to be 10.
